Experiment [1] deals with T1, Human interleukin-18 (recombinant human IL-18) (human, UniProt Q14116 37-193).
T1 sequence: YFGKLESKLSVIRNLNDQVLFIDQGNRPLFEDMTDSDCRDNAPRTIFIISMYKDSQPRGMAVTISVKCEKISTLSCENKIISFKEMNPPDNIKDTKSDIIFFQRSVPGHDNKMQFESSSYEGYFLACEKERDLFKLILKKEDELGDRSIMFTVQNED
Kind of experiment: cell-based or functional assay.

Experiment [2] concerns the target T1, Human interleukin-18 (recombinant human …). Kind of experiment: SPR, Biacore T100, Protein A capture, 25 C, mean n = 3. As for the experimental part:
(§1) The methodology was basically the same as for the method used in Example 4a above; Protein A was immobilised on a CM5 chip at densities of between 2000-6000 RU's by primary amine coupling. Runs were carried out in HBS-EP (Biacore™). The anti-IL-18 antibodies were captured to densities of between 100-500 RUs, human IL-18 was passed over this captured surface at concentrations between 16-0.0625 nM, with 0 nM concentration (i.e., a buffer only injection of captured antibody) used for double referencing. Regeneration after each injection of IL-18 was by mild acidic elution using two injections of 10 mM glycine, pH1.5. […] The binding curves obtained were analysed using the analysis software inherent to the T100 machine using the 1:1 model of binding. Runs were carried out at the temperatures indicated.
These experiments were carried out as described above. Table 6 details the kinetic parameters obtained. […] H1L2 has a better on-rate (ka) than H1L1.

The target is the same in experiment [3]. The experiment is described as follows: SPR, Biacore T100, Protein A capture, 37 C, mean n = 3. As for the experimental part: as §1
Experiment [4] has the same target. Kind of experiment: SPR, Biacore 3000, antibody captured on Protein A, 25 C. As for the experimental part: Biacore™ kinetic analysis of the humanised 2C10 antibodies was carried out on a Biacore™ 3000 instrument using Protein A capture of the antibodies in HBS-EP buffer (Biacore™). Briefly, Protein A was immobilised on a CM5 chip by primary amine coupling, using manufacturers recommended protocol, to densities around 2000-4000 resonance units (RU's). Humanised antibody was then passed over the Protein A surface and captured to levels of around 200-500 RU's, after a period of stabilisation, IL-18 (human or Rhesus) was passed over the captured antibody surface at defined concentrations and binding sensorgrams were obtained. […] All curves were double referenced against a buffer injection instead of IL-18 and the data was fitted to the 1:1 binding model using the global fit parameters in BiaEval 4.1. Off-rate ranking experiments were set up using the same Protein A capture method, however, only a single concentration of IL-18 was used (10 nM). Whilst the data was fitted using the same binding model as the kinetic analysis, since only one concentration of analyte was used on the off-rate is reported, this value is useful for ranking rather than giving an exact kinetic measurement and was used as a way of selecting which antibodies would be further investigated. […]

For experiment [5], the target named is T2, Rhesus IL-18 (rhesus (rhesus/cynomolgus)).
T2 construct: also called Rhesus/Cynomolgus IL-18; rhesus/cynomolgus IL-18
Described as above. As for the experimental part:
(§2) Biacore™ kinetic analysis of the humanised 2C10 antibodies was carried out on a Biacore™ 3000 instrument using Protein A capture of the antibodies in HBS-EP buffer (Biacore™). Briefly, Protein A was immobilised on a CM5 chip by primary amine coupling, using manufacturers recommended protocol, to densities around 2000-4000 resonance units (RU's). Humanised antibody was then passed over the Protein A surface and captured to levels of around 200-500 RU's, after a period of stabilisation, IL-18 (human or Rhesus) was passed over the captured antibody surface at defined concentrations and binding sensorgrams were obtained. […] All curves were double referenced against a buffer injection instead of IL-18 and the data was fitted to the 1:1 binding model using the global fit parameters in BiaEval 4.1. Off-rate ranking experiments were set up using the same Protein A capture method, however, only a single concentration of IL-18 was used (10 nM). Whilst the data was fitted using the same binding model as the kinetic analysis, since only one concentration of analyte was used on the off-rate is reported, this value is useful for ranking rather than giving an exact kinetic measurement and was used as a way of selecting which antibodies would be further investigated.
(§3) Based upon these observations selected antibodies were investigated in greater detail for binding to human and Rhesus IL-18 at 37° C. The data shown in Table 4b for human IL-18 is the mean (and standard deviation) of six separate determinations.

In experiment [6] the target is T1, Human interleukin-18 (recombinant human …). The experiment is described as follows: SPR, Biacore 3000, antibody captured on Protein A, 37 C. As for the experimental part:
as §2, §3

Experiment [7] addresses T2, Rhesus IL-18. The experiment is described as above. As for the experimental part: as §2, §3
For experiment [8], the target named is T1, Human interleukin-18 (recombinant human …). Kind of experiment: ELISA, human IL-18 captured by 16D10, antibody titrated. As for the experimental part: ELISA with all nine humanised variants was carried out at least 6 times using various batches of purified antibody preparation. FIGS. 4A-4C show representative data from one experiment which generated the EC50 value ranking illustrated in Table 7. Human IL-18 was immobilized on Nunc Maxisorp 96-well plates using 2.5 µg/ml of 16D10 (non-neutralising mouse monoclonal antibody) to capture 5 ng/ml of recombinant human IL-18. Anti-IL-18 humanised antibodies were added at various dilutions. Bound humanised antibodies were detected using anti-human IgG Fc specific peroxidase conjugate (Sigma A0170).

Experiment [9] has the same target. The experiment is described as follows: ELISA, antibody on plate, human IL-18 captured, detected by 16D10; 37 C, in serum. As for the experimental part: (§4) ELISA was carried out with the three Humanised H1 variants; H1L1, H1L2 and H1L3 to assess binding to human IL-18 at room temperature and at 37° C. in both human serum and in block solution (PBS 0.05% TWEEN with 1% BSA (w/v)). The Humanised antibody variants were immobilised on Nunc Maxisorp 96-well plates at 2.5 µg/ml. Capture of 5 ng/ml of recombinant human IL-18 was carried out either at room temperature or 37° C. in human serum or block solution. Anti-IL-18 mouse monoclonal antibody 16D10 was added. The bound mouse antibody was detected using anti-mouse kappa peroxidase conjugate (Serotec MCA 1291P). Representative EC50 values generated from the study data are illustrated in Table 9.

For experiment [10] the target is unchanged. The experiment is described as follows: ELISA, antibody on plate, human IL-18 captured, detected by 16D10; 37 C, blocking buffer. As for the experimental part:
as §4

For experiment [11] the target is unchanged. The experiment is described as follows: ELISA, antibody on plate, human IL-18 captured, detected by 16D10; room temperature, in serum. As for the experimental part: as §4
For experiment [12] the target is unchanged. The experiment is described as follows: ELISA, antibody on plate, human IL-18 captured, detected by 16D10; room temperature, blocking buffer. As for the experimental part:
as §4

For experiment [13] the target is unchanged. The experiment is described as follows: SPR, Biacore T100, Protein A capture, 37 C, mean n = 2. As for the experimental part: as §1
For experiment [14], the target named is T2, Rhesus IL-18. Kind of experiment: Rhesus IL18 binding ELISA, antibody titrated, OD 490 nm.
The target of experiment [15] is T2, Rhesus IL-18. The experiment is described as follows: Rhesus IL-18 binding ELISA, antibody titrated, OD 490 nm.

B1: H1L3 humanised anti-IL-18 antibody (antibody, human IgG1, kappa, V domains shown)
VH: QVQLVQSGAEVKKPGASVKVSCKVSGEISTGYYFHWVRQAPGKGLEWMGRIDPEDDSTKYAERFKDRVTMTEDTSTDTAYMELSSLRSEDTAVYYCTTWRIYRDSSGRPFYVMDAWGQGTLVTVSS
VL: DIQMTQSPSSVSASVGDRVTITCLASEDIYTYLTWYQQKPGKAPQLLIYGANKLQDGVPSRFSGSGSGTDYTLTISSLQPEDEGDYYCLQGSKFPLTFGQGTKLEIKR
notes: Human IgG1 / kappa
Consider B1, for which, in experiment [1], the “% change vs 2C10 (IC50, KG-1 bioassay)” value was 71.6%. Further, the Kd in experiment [2] worked out at 0.022 nM; in [3], 0.0648 nM; in experiment [4], 0.0225 nM; in [5], 0.109 nM; in experiment [6], 0.188 nM; in [7], 0.17 nM. Moreover, the EC50 in experiment [8] was determined as 11 ng/mL; in experiment [9], 0.0114 µg/mL; in experiment [10] it was 3.33 ng/mL; in experiment [11], 8.99 ng/mL; in [12] it was 3.79 ng/mL.

B2: 2C10 rat-human chimera (chimaeric antibody 2C10c) (antibody, V domains shown)
VH: EVQLQQSGAELVRPGTSVKLSCKVSGEISTGYYFHFVRRRPGQGLEWIGRIDPEDDSTKYAERFKDRATLTAQTSSNTAYLNLSSLTSEDTATYFCTTWRIYRDSSGRPFYVMDAWGQGTLVTVSS
VL: DIQMTQSPASLSASLGETVSIECLASEDIYTYLTWYQQKPGKSPQLLIYGANKLQDGVPSRFSGSGSGTQYSLKISGIQPEDEGDYFCLQGSKFPLTFGSGTKLEIKR
notes: Rat 2C10 V regions joined to human IgG1 and kappa C regions; also called Chimera 2C10; 2C10 Chimera
For the molecule B2, the Kd in [2] came to 0.0091 nM; in [13], 0.0229 nM; in [4], 0.0139 nM; in experiment [5], 0.0547 nM. Besides, the EC50 in experiment [8] is 7 ng/mL; in experiment [9] it was 0.0101 µg/mL; in [10] it was 3.79 ng/mL; in experiment [11], 7.3 ng/mL; in experiment [12], 3.81 ng/mL. The figures for the “EC50 (read off the curve)” value in [14] and in experiment [15] were roughly 0.02 µg/mL and roughly 0.01 µg/mL, respectively.

The values are drawn from patent US8133978 (GlaxoSmithKline, dated 2012).
